These are literature values, as cited in article PMC3786701.

Broadly, the Kd is the concentration at which binding is half-saturated.

In the data set the target is SNARE complex (Rattus norvegicus) (UniProt P32851).
Sequence of UniProt P32851 (P32851 whole entry, chain 1 of 3): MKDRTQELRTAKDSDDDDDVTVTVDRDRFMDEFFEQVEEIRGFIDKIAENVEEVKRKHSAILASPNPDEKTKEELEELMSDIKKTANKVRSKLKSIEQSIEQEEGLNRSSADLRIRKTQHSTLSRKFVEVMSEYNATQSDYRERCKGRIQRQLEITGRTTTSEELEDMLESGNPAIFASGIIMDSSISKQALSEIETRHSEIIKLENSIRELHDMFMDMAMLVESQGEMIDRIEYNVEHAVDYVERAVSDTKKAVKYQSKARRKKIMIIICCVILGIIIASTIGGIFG
Sequence of UniProt P32851 (B2RAU4 whole entry, chain 2 of 3, further chain): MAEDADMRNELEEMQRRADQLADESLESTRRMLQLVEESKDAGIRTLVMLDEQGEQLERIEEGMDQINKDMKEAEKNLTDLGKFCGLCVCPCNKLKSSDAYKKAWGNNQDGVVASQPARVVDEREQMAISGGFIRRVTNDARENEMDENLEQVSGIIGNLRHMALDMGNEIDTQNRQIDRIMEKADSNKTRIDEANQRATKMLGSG
Sequence of UniProt P32851 (P63044 2-116, chain 3 of 3, further chain): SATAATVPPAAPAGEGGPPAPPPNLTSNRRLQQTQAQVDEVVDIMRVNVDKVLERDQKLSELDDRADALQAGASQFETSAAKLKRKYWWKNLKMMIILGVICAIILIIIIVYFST

As to “synaptotagmin-1 C2AB (from UniProt P21707)”, the Kd is 1000 nM.
